Measured values published in publication PMC4846058.

Assays:
ixekizumab (human) = experiment: SPR
[1] = target: cynomolgus monkey IL-17A (Macaca fascicularis); experiment: SPR

Substance	KD, heterogeneous ligand model, first set (ixekizumab (human))	KD, heterogeneous ligand model, second set (ixekizumab (human))	koff, heterogeneous ligand model, first set (ixekizumab (human))	koff, heterogeneous ligand model, second set (ixekizumab (human))	kon, heterogeneous ligand model, first set (ixekizumab (human))	Kd [1]
rabbit IL-17A (ligand)	1.3 nM	14 nM	0.00017 s⁻¹	0.11 s⁻¹	150000 M⁻¹ s⁻¹	–
ixekizumab (antibody)	–	–	–	–	–	0.0008 nM
